Data from the DeepSol protein solubility set.

assay: soluble on expression in E. coli; label from the status in PepcDB or PDB records

Sequence	soluble on expression in E. coli
MFTRQAGHFVEGSKAGRSRGRLCLSQALRVAVRGAFVSLWFAAGAGDRERNKGDKGAQTGAGLSQEAEDVDVSRARRVTDAPQGTLCGTGNRNSGSQSARAVGVAHLGEAFRVGVEQAISSCPEEVHGRHGLSMEIMWAQMDVALRSPGRGLLAGAGALCMTLAESSCPDYERGRRACLTLHRHPTPHCSTWGLPLRVAGSWLTVVTVEALGRWRMGVRRTGQVGPTMHPPPVSGASPLLLHHLLLLLLIIILTC	not soluble
MGSDKIHHHHHHMRLTIHHTTRYRFDEPVSFGLQQLRKTPKTNTNQQVVEWQTRIIGGQKEVSFDDHHHNVTELISFEPGVTELELVSEGVVELTDTHGVVGRHRGPSPLWLYARPTVLTEARAGVRELIRDLDDSNPVDMLHQLSARIREAITYQIGVSELGWSAEDAIQSAHGVCQDHAHVFIACARKLGLPARYVSGYLMLDDRTTQDAMHAWAEAHVEGLGWVGFDVSNGISPDARYVRVATGLDYSDAAPVSGTRIGGAGEALDVQIEVAQQ	not soluble
MDITNIKEMNYEEVFSITITVDKPILIGQDDIVGRRQLIPIISGKVSGNNFNGKVLPGGIDSQIVRPDGKCELSARYAIRLDDGAAIYIENNGIRTVPDEYIEAVKSGEFVDPNAYYFRTIPTFETYSPKYKWMMNHIFVCCASRLPENVLLKFYKIS	soluble
MSNHQKRLSVPNSWPVERKTATFTVKAGAGPHGESGVPLLIVLRDVLGYADNRKEARYALNEDNVLINGKAISDEERPVGMFDILAFTEREEYYRVFPGEGGRLALTAIDPDAAQSKLGKIVTKTHVSGGDVQLGLHDGETLIVEDDQTYDAGDSIVVGNEDGEVVAHFEYEEGALVTAVDGAHAGEVGEVEEIQVTPGSAQNNVIVSQDEGEGFETVEEYVVVIDENFTGDDELEHHHHHH	soluble
MVKIGVCGPVGSGKTALIEALTRHMSKDYDMAVITNDIYTKEDAEFMCKNSVMPRERIIGVETGGCPHTAIREDASMNLEAVEEMHGRFPNLELLLIESGGDNLSATFNPELADFTIFVIDVAEGDKIPRKGGPGITRSDLLVINKIDLAPYVGADLKVMERDSKKMRGEKPFIFTNIRAKEGLDDVIAWIKRNALLEDLEHHHHHH	soluble
YNVLENEELRFQLTIQKEQIEFQRNKYEQLGAAYKNIRSFMHDTKKHLFYIENCVTEKKYDDIIPYSKEIMHDLESRYCTINTGNLVIDAFVSNLLLQTKAQGITLHTNLKFDKATIPVNDYHLTIILGNLLDNALNACRGQIGANIKVAVRTVDGTFTIHVANTYVIADPDKAPDDFEKIDFIHGYGLKNVKDSAEACGGFCVIHHENDVYSATVIIPILNP	not soluble
MGSDKIHHHHHHMKSIPSLDDLDLFARIAQAGGLAVVARQSGVSVPTLSRRMRALELQIGVHLFERGSHGYRVTALGRAFLSETRAFQAEAQRLRRMVATPLMAEVRITAGSWTSAFLAQQLPRFWQEDAQWRPAFLEADTRLDIARRGADIGIRNQRPEQAWLAGRYTGLITYAVYAISDQVRGYVVLPENQAKTPSARWVWSHHGGEVAATARSPRMVADLACAGVGQVVLPRFAAAMFPALQQVGPEIAELSHEEWLVCHHDGRHDPPVRAALEGIAAVLTDTTLRPIGA	not soluble
MSVKSDSRHLYLRVIDHIKEKIKDGAYKERQKLPSEFDLAKELGVSRATLREALRILEEENVVIRRHGVGTFVNAKPLFSSGIEQLSSITDMISSVGKTPGTIFLSSSTTSLTEEEKEKFNSEDGFNAVMIERVRTADGEPVVYCIDKLAKEILPDLSGYNEESLLTVIHNNTHKRITYAVAHIEPIGYHPKISPILECEPETALLVLKQMHYDQNDEPILYSINYFRADKFSFHVLRKRM	not soluble
MSLITCKFKNLGNLHAGGCGYIPLSSTREERVKNGSRVVSTALLSSYHKGIAFVIFPSHHHTPTRPPSPKPSGSGGYLLNLRRRDPPQAFLSGCPPLPPRGSVLLGCTPPRTQFFVFHVVSYPLVLQKLLQTRDQKSIGSNSSCDTSEMSDCWQVTLSI	not soluble
MGSDKIHHHHHHMSQHVLLNSVDHKDIKIITERSAKYGDNVWFSVTFPAEFRSVQAHYPIFFQKDQTTGQFFAVALYGFQNNENLFLNNGTWQASYIPLTQRRQPFLIGQQSVREDGVERKQRVIHIDIASPRVSTTEGEALFHPYGGNTQYLDDIGDMLEGIHHGLIDSKHFIDLLIEHQLLESFTLDVKLDNGQQHQMMGFYTINEDTLASLSAEVLAQLHIKDYLKAIYMALASQARVRDLLNLKNAQG	not soluble
MTSNDSSENLRNRLAEKMAGDITLSEKPGESLKKWRLNFEISQTDIANYLKVSPSVISDYESGRRKSPGTLIVRKIVESLLEIDLERGGKKIHTYETMLNAESGSKSIYSTYEYTLPIQLAKLVNLIEGDIVYKGIEKPLYGFSVVDSQRAILELSSHEFQKLYGWSTDRAMIFTKVSTGKSPLVAIRVTNLKPGAVVLHGLRKEEVESVAVKMAEVDRVPLVATTMDLDQIVQLLKKYSQYYARE	not soluble
MNFIFDIDGTICFDGCSIDSSIKQRLFKLRQANHNVIFASARPIRDLLPVIPEFADDTLIGGNGSIISKNGQIEIVSVINEHDISLIKKIIKKYQLSYIIDDKFNYASNLDSNNELYQRIDPDGKAQSLDMDEIRNPIKAILLNIDNKDFDMIAHQLVSQSHGIELIRHYSESYIDVTARGVDKYTTIQYILGTNSDYIAFGNDHNDVHMLEHASQGYFVTNQFIEHTSFFKNKNITVIDDTIYAICEVLDRYL	not soluble
MKGSTIGTETKECGKETDFCYNGTADISSFSKFQKAGCNTVICQFHANKCFEQNVSGQLLTFCCCNTDDLCNGGAVTDSGSLFDRGLSVLKGLVSAGKK	not soluble
MGSDKIHHHHHHMSRSPFQTFVWRSEIFECQSTDIQRFYSLLAIETERLGLGSKILGQAGHHPLYLLQSPGQKAGLPNLLISAGFHGEESAGPWGLLHFLSQLDGELFKRVNLSVLPLVNPTGFAKGHRFNELGENPNRGFFIENGKAKPGADTSAEGRILLEHAHLLQVASRDGILTCHEDVLMTDTYVYTFEPSQAPGRFSHSLRDALGQYFPIAADGDVDNCPVRSGVIFNHFDTSFESFLVRSGARVGCCSETPGQQPLDQRILANAAAMNTFVNMLAPELS	not soluble
QLVLTQSSSASFSLGASAKLTCTLSSQHSTYTIEWYQQQPLKPPKYVMDLKQDGSHSTGDGIPDRFSGSSSGADRYLSISNIQPEDEAMYICGVGDTIKEQFVYVFGGGTKVTVLGEPKSTPTLTVFPPSSEELKENKATLVCLISNFSPSGVTVAWKANGTPITQGVDTSNPTKEGNKFMASSFLHLTSDQWRSHNSFTCQVTHEGDTVEKSLSPAECL	soluble
MSTSTVETGYGGRIRVTVARNDRDITSEVRTFLCNKENANKIIGLDTERSVVGGDSEYPPESKLVILELSDGQNCLIIPLPYVQGNKLPVSLTNFLNLPDFTFTGVGINKALKMLKSECGLTCKNAVDIGPSSPIYEDWDNDSLTEDQINLAAANAYLAFKVGNLIREAMY	soluble
MCIGVPVQVISPGQWFAKCRDRHGELIDVDIRLVAPPLAGAWLLTFGGAARREMDEAEAAEVLAALDSLEQAMLTQSDPLTGFADLLSRTPELPEHLKK	not soluble
MNFHFTLDNDRKRRRSLSIDIDINFNDKAPGTSSDNEQRAPKRRADEEAVNAVPKNLLTTSSTFARAVIPAAPAISSANNKMAPQSVTATAKTTTNRGKVSGEGEYQLIKNEVLCSPYGNQYEVLEFLGKGTFGQVVKAWKKGTSEIVAIKILKKHPSYARQGQIEVSILSRLSNENSEEFNFVRAFECFNHKSHTCLVFEMLEQNLYDFLKQNKFMPLPLNAIRPILFQVLTALLKLKSLGLIHADLKPENIMLVDPQQQPYRVKVIDFGSASHRSKAVTNTYLQSRYYRAPEIILGLPFNESIDMWSLGCVIAELFLGWPLYPGSSEYDQIRFIIQTQGLPPTSMLESASKLHRFFKEVKSESPNHTNVGGSYYRLKTVEEYEASSSTAKSKETRKYIFNVIDDISRVCYGFESDPVEHLCDRIDRQEFVDVLKKMLVLNPDFRITPAEGLESKFVTMTHINGYNFANYVHEAHKRMEICRKPGPAMATPYRAANVATPITPVEKPPAPKLQQPMIAVLPQLNQIAATNIPPVPTQPDLTNLMHHYSQMAAATGSAATAAQFFYQPLPPAPLFQYAQLHHPFAARPPHFLSLATPSHMVPQFVPVPIMDPSMLQGQWPPGAAQQFAVLANDIMRVPAPQGINQMFASTPQTFSLPQFLSSSIPSATTAFNGNAPNIPFPEENSSWALGTAAQQQQQQAQRAQSMINGNVKVKPLAAQPKKNSPAPSVITLSSDEDSNGAGSSNSGSTTRTGAVNPVRNDTLPMGNTIKTEDILVPPTTFDGQLPNLQYFPGSHLFDPKTVAGLLPNPFLDTSHIPRAFN	not soluble
MNSIQIADETYVAADAARVSAAVADRCSWRRWWPDLRLQVTEDRADKGIRWTVTGALTGTMEIWLEPSMDGVLLHYFLHAEPTGVAAWQLARMNLARMTHHRRVAGKKMAFEVKTVLERSRPIGVSPVT	not soluble
MLVGHARKDITPTEPFYLLGYKTELRNQPAKGIHDHIYINALLFYDDKGNECFLATGDLLELEDIVAADIRQKISRKYGIAMDHVIIGVTHDHHSVRDYHRTWEFGKFSQTYYDFFVDSFVQAFEDCRETLTDVTVQYGQQEIFGFYSNRNHANKPSDNAVSVIKFIADGHAVAGIVNMAVHSTVLGPDNQYLTADLAGNTCTKLAKEWGFFPLMLIGCAADSSNRYERQGRDFAELERASSGLAVAISKIQTPKRLCLGKIQTLTLSHEVVNDKPIYDRKLRTMINDLRSGVIKAIGSQSVEAIVEKCEDQLNKPQFHDLLSLQLLDIGELRLFVFPGELASAGAKKLTSFDRLEHHHHHH	not soluble
MSLRKEDKAAYRCLKAIKAGEKLTDAPAEDLPDLDLKPLEEMQNIYREHPEALQASVEIAEQCRVDVSLGQTRLPSFPTPDGTSADDYLTDICMEGLRSRFGKPDERYLRRLQYELDVIKRMKFSDYFLIVWDFMKHAHEKGIVTGPGRGSAAGSLVAYVLYITDVDPIKHHLLFERFLNPERVSMPDIDIDFPDTRRDEVIQYVQQKYGAMHVAQIITFGTLAAKAALRDVGRVFGVSPKEADQLAKLIPSRPGMTLDEARQQSPQLDKRLRESSLLQQVYSIARKIEGLPRHASTHAAGVVLSEEPLTDVVPLQEGHEGIYLTQYAMDHLEDLGLLKMDFLGLRNLTLIESITSMIEKEENIKIDLSSISYSDDKTFSLLSKGDTTGIFQLESAGMRSVLKRLKPSGLEDIVAVNALYRPGPMENIPLFIDRKHGRAPVHYPHEDLRSILEDTYGVIVYQEQIMMIASRMAGFSLGEADLLRRAVSKKKKEILDRERSHFVEGCLKKEYSVDTANEVYDLIVKFANYGFNRSHAVAYSMIGCQLAYLKAHYPLYFMCGLLTSEGHHHHHH	not soluble
MDENTRNLIKKVERSVFAGNRAAAAKELGEIGDFDAVPVLLKALEDSSSKVKAAASEALGEINDPDAVPCLMKMLDYPESYVKKAAIIALGKIGTQEAVSGIVKGFRDPDKLIRKESVKALMRIGSPEAVSGLTATFTCPDSPLKRISITALGKINTYEAACGLVKALEDPDNRVRQQAVETLGKRGISDVLEELMELLKDSRQPVQEAASEALCKIIGGSESVPVLVKALGASDRKVRKASIEALGKAGNSEAVSALLKELDDDDWYLRSRAADVLADIASPEAALGLVKALDLHDAPVRKLIVSALGKIGSPETIEGLVKALDDPDNSIREAATLGLGKTGKVEAVPGLLRALHDPKNTVQEAAATSLGDMKAREAVPEFLRILEDPDSLIHKSVIFSLEKIGTPEAVAGLSRALNNPDAMVRKAAAKSLEKIKKSGLPLEKAKNIEISGFNISE	not soluble
